In test [1] the target is T1, BTM protein (synthetic fusion protein of the highly conserved extracellular portion of MUC16^c57-114 fused to … (human, UniProt Q8WXI7 14394-14451)).
T1 construct: domain: highly conserved extracellular portion of MUC16^c57-114; also called MUC16 BTM protein; Muc16 BTM protein; not shown: human Fc (pFUSE backbone)
T1 sequence: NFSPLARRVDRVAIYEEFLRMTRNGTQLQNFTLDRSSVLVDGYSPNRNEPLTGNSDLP
The test is described as follows: SPR (BiaCore X100), His-tagged BiTED on NTA chip, BTM as analyte, 1:1 model. On the procedure: (§1) Kinetic Analysis of BiTEDs binding to MUC16^ecto. The kinetic analysis of EXT170-8 BiTEDs and Muc16 BTM protein (55mer highly conserved ectodomain region of MUC16) was performed on a BiaCore X100 instrument loaded with an NTA sensor chip. EXT170-8 BiTED comprises the amino acid of SEQ ID NO: 89 and the leader sequence of SEQ ID NO: 93.
(§2) The raw data was analyzed using the kinetic model 1:1 binding by Biacore X100 evaluation software.
MUC16^ecto-BiTEDs were purified and confirmed by SDS-page (FIG. 1(c)). To determine the binding affinity of BiTEDs to MUC16^ecto, a previously validated BTM protein (a synthetic fusion protein consisting of the highly conserved extracellular portion of MUC16^c57-114 fused to a human Fc backbone pFUSE) was used, and kinetic analysis was performed using surface plasmon resonance.

The target in test [2] is T1, BTM protein (synthetic fusion protein …). As to the kind of experiment: SPR, BiaCore X100, His-tagged EXT170-8 BiTEDs immobilised on an NTA sensor chip, MUC16 BTM protein injected at 35.625 to 570 nM, 1:1 binding model [d]. How it is done: as §1, §2

The values below come from patent publication US20240174764A1 (Memorial Sloan Kettering, published 2024).

B1: EXT170-8 BiTED (MUC16^ecto-specific Bispecific T-cell engaging diabody, Clone 8 (LH)/anti-CD3 bispecific antibody) (bispecific antibody)
chain: DIQLTQSPSAVSASVGDRVTITCRASQDVSKWLAWYQQKPGKAPRLLISAASGLQSWVPSRFSGSGSGTEFTLSISSLQPEDFATYYCQQANSFPWTFGQGTKVEIKRSRGGGGSGGGGSGGGGSLEMAQVQLQQWGAGLLKPSETLSLTCAVYGGSFSGYYWSWIRQPPGKGLEWIGEINHSGSTNYNPSLKSRVTISVDTSKNQFSLKLSSVTAADTAVYYCARQSYITDSWGQGTLVTVSSTSGGGGSDVQLVQSGAEVKKPGASVKVSCKASGYTFTRYTMHWVRQAPGQGLEWIGYINPSRGYTNYADSVKGRFTITTDKSTSTAYMELSSLRSEDTATYYCARYYDDHYCLDYWGQGTTVTVSSGEGTSTGSGGSGGSGGADDIVLTQSPATLSLSPGERATLSCRASQSVSYMNWYQQKPGKAPKRWIYDTSKVASGVPARFSGSGSGTDYSLTINSLEAEDAATYYCQQWSSNPLTFGGGTKVEIKHHHHHH
notes: The molecule was His-tagged in SPR and biotinylated in ELISA; also called MUC16^ecto-BiTEDs; EXT170-8 BiTEDs
The Kd is the free concentration of one partner at which half of the binding sites on the other are occupied at equilibrium, for simple one-to-one binding. In general, koff refers to the first-order rate constant of dissociation. Low readings indicate slow dissociation, high ones fast dissociation. One may read the kon as the second-order rate constant of association. High values mean faster complex formation, low ones slower complex formation. On to B1, for which the Kd in test [1] turned out to be 69.9 nM. Moreover, in test [2], the koff was 0.0157 s⁻¹ and the kon was determined as 224000 M⁻¹ s⁻¹.
